Assay results: US20260265373A1

Assays:
[1] = target: full-length human ILT7 on cells (human) (UniProt P59901); assay: competitive FACS on CHOK1 cells expressing human ILT7; competitor Tab1-Alexa488; negative control, reference of the calculation
[2] = target: full-length human ILT7 on cells (human) (UniProt P59901); assay: competitive FACS on CHOK1 cells expressing human ILT7; competitor Tab1-Alexa488; negative control that sets the reference signal
[3] = target: full-length human ILT7 on cells (human) (UniProt P59901); assay: flow cytometry of human PBMCs, gate on pDCs (CD11c low, HLA-DR+, CD123+)

full-length human ILT7 on cells (human), sequence (P59901 other isoform, or with tags, fused parts or gaps): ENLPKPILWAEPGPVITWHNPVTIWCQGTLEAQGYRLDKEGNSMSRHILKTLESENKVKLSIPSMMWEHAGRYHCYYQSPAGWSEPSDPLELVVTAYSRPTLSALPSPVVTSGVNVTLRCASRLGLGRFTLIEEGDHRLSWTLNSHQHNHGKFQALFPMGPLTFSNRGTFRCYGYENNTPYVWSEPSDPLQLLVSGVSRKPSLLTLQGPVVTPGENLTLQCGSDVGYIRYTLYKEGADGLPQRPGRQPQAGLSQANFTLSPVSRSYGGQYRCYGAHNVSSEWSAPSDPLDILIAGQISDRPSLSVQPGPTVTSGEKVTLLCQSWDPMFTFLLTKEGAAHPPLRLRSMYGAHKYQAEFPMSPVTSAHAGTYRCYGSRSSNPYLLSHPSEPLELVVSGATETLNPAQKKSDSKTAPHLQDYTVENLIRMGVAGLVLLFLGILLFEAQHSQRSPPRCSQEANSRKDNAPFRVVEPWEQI

Inhibition (%) [1]: 0% | MFI of Tab1-Alexa488 [2]: 9670 | % targeted cells in subpopulation (pDC) [3]: 2.2%
Substance: isotype antibody hIgG1 (negative control)
